Target: Recombinant His6-tagged UVI31+ protein from C. reinhardtii (C. reinhardtii)
Test: SEC; gel filtration on a Sephadex G75 column in 50 mM sodium phosphate (pH 7.6), 50 mM NaCl; major peak at 87 ml (monomer), small hump at 68-75 ml (dimer)

Recombinant His6-tagged UVI31+ protein from C. reinhardtii (natural protein)
stoichiometry N: 2

From publication PMC3524116
